Results from FireProtDB (doi:10.1021/bi951726o).

B1: Tryptophan synthase alpha chain, P0A877 (parent)
chain: MERYESLFAQLKERKEGAFVPFVTLGDPGIEQSLKIIDTLIEAGADALELGIPFSDPLADGPTIQNATLRAFAAGVTPAQCFEMLALIRQKHPTIPIGLLMYANLVFNKGIDEFYAQCEKVGVDSVLVADVPVEESAPFRQAALRHNVAPIFICPPNADDDLLRQIASYGRGYTYLLSRAGVTGAENRAALPLNHLVAKLKEYNAAPPLQGFGISAPDQVKAAIDAGAAGAISGSAIVKIIEQHINEPEKMLAALKVFVQPMKAATRS

Variants of: B1
Conditions: Escherichia coli (strain K12), pH 7.8, Urea, NMR, Potassium phosphate 58 mM, reversible: yes, structure 1WQ5, whole UniProt chain shown

Variant | denaturant midpoint (higher = more stable) (25 °C) | unfolding free energy (25 °C) | denaturant midpoint (higher = more stable) (5 °C) | unfolding free energy (5 °C)
L100A | 5.2 M | 4.7 kcal/mol | – | –
P93A H244A | 5.4 M | 3.4 kcal/mol | – | –
I95A | 6.2 M | 7.9 kcal/mol | – | –
Y102A | 5 M | 5.4 kcal/mol | – | –
H244A | – | – | 4.8 M | 4 kcal/mol
P96A | 8.6 M | 4.9 kcal/mol | – | –
